# Experiment: soluble on expression in E. coli; label from the status in PepcDB or PDB records
row,Sequence,soluble on expression in E. coli
1,MSFVQIRHISSQINRKTVSIVGSGPSGFYTAYHLLKKSPIPLNVTIWEKLPVPFGLSRYGVAPDHPEVKNCEETFTTCAEEFSSPTNQKHKFSFVGGITIGKEILLKELLDNQDAVILSYGCTGDRKLNIPGELGTKGVFSSREFVNWYNGHPDFAKDKRFTDFDWSKVSKVGIIGNGNVALDITRVLISNQIDEIWENTDISSLALNLLRRAPVKDVKLIARRDFVHSKFTNKELRELWELEKYGIRGRIDPKFFQKEMFDPSKYDRAFNRRVEMCSEYLKPFNERSKKNYKKAPPPSSGYDKFWELDYLKTPLKINRDDFGAINSLSLCNNRLNEDNSLQPLKDVNNIMTYKVDLLITSLGYAGVPMPEFSKLSIGFDKDHIANKQGRVLTSSGEIFPHLYASGWIRKGSQGVIASTMQDAFEVGDRVIQDLVVSGALSLENSIDLSNIKHTTWKDWERINKKELLRGKKEHKTRSKFLTFEELWNGVEGI,soluble
2,MGSDKIHHHHHHMFSIGKHSDFTPSCVSRMLGDLHFVNQGTAMKFSRYFFSLLTTLPLLACTQVEAPVPEALSQSTGHTAGAAQPQESVIGGSLPIGDSSRTSLDWQGSYEGVVPCASCEGIKTRLTLNNDGTYLLQSQYLGKEQDGKEPKVFEEQGKFSWNASGGAIQLENGAWYQVGENQLFMLDREGKRITGVLAGHYRLLKKQSALLPRF,not soluble
3,EAQTRVKLNFLDQIAKYWELQGSTLKIPHVERKILDLFQLNKLVAEEGGFAVVCKDRKWTKIATKMGFAPGKAVGSHIRGHYERILNPYNLFLSGDSLRCLQKPNLTSDTKDKEY,soluble
4,MSLEKVIPVKKNNDYEIYIDDFGNMGEGIGKIDNFTVFVKDAVKGEKVRAKIIKVNKSFAIGKLIDIIEKSQDRTEPVCSIYKKCGGCQLQHLKYTEQLEFKKNKVVECLKRIGKLDLSSVRINETIGMEDPYFYRNKVQLPVGETAGEAKIGFYRERSHEIIEVDKCFIQDDSANEIILLIKRWIKEFNIEGYNEYSGKGTLRHIMIRKAFKTGQIMLVLVTNTENVPHKKELIHMITTEIQGIKGIIQNINNKKTNVILGQREITLWGESTIEDYIGEFKFNISSKSFFQVNPIQTEKLYSAALKYAGLTGKEVVFDAYCGTGTISLFLSQNAKKVYGVEIIPEAIENAKINAKQNGIENTEFIVGKSEEEIPKLIEKGIAPEVVVVDPPRKGCEKSLLHSIAEASPKTIVYVSCDPATLSRDLGILSELGYEVNEVQPVDMFPMTGHVETIVLIKRVDKEGHHHHHH,soluble
5,MVKVGYIQMEPKILELDKNYSKAEKLIKEASKEGAKLVVLPELFDTGYNFESREEVFDVAQQIPEGETTTFLMELARELGLYIVAGTAEKSGNYLYNSAVVVGPRGYIGKYRKIHLFYREKVFFEPGDLGFKVFDIGFAKVGVMICFDWFFPESARTLALKGAEIIAHPANLVMPYAPRAMPIRALENRVYTITADRVGEERGLKFIGKSLIASPKAEVLSIASETEEEIGVVEIDLNLARNKRLNDMNDIFKDRREEYYFR,soluble
6,MAHHHHHHMRNIVQKYLQRNSTKLFNRTSVFNLYKKCNFSGYKIYSDGLVHSEFSTELKTVNEVIKMPIYRILDTNGHLLDGHEAPFKDEEVLKIYKDMVEFSIWDEIFYGIQRQGRISFYIVNEGEEGLQFGMGKALSVDDHLYCQYRETGVLLSRGFTYTDILNQLFGTKYDEGKGRQMCICYTKKDLNIHTITTPLGSQLSHAAGCGYALKLKNQKAVAVTYCGDGSSSEGDFYAALNFASVRQSQTMFVCKNNLYAISTSIKDQYRGDGIAPRALALGIESIRVDGNDLFASYLATKKLRDICIQESKPVFIEFMSYRYGHHSTSDDSSLYRPKEENEAWRQEGVHPISRIFLYLKNKNLYSEKEDQEHRKSVKENVLKELKKYESVKRYNIVGGLFEDVYHEEDWNIKEQRENFEQFFKENKHNYDTSKFER,soluble
7,MFKRETKDFINIDPLQTGGKLTEEARQALLEWGDGYSVCDFCTTGRLDEIKTPPIHDFIHNQLPKFLGCDVARVTNGAREAKFAVMHSLAKKDAWVVMDENCHYSSYVAAERAGLNIALVPKTDYPDYAITPENFAQTIEETKKRGEVVLALITYPDGNYGNLPDVKKIAKVCSEYDVPLLVNGAYAIGRMPVSLKEIGADFIVGSGHKSMAASGPIGVMGMKEEWAEIVLRRSEKYKNKEVELLGCTARGATIITLMASFPHVRERIKRWDEEVEKARRFAAEMEKLGIKQLGDNPHNHDLMFFHAEVLYEISKKAKGGRFFLYRELKSRKIHGIKPGLTRYFKLSTYGLSDEEVDYVLNAFKEIIEKYS,soluble
8,NWVTPDGAPGPTGKGGFAAASGRYHLYVSYACPWAHRTLIFREIKGLSAHIPVSAVHPDMLDQGWTFAPEPQGRTGDRLYGLNYAHQVYTRADPTYSGRVTVPILWDSERQTVVSNESSEIIRMFNSAFDGLTGNRDDFWPEALREAIEPVNARIYDTVNN,not soluble
9,EFIHGVYVDTSLHRNFVNLQQASLMAEGGVTGGISLLRNLRTSGNDQGLQQLLADPVQFEDEKGRVSITIEEEDGKLNLNAVTLPNGDEHVFYGPAERRLLTALKLPTALHDSLADWLDANDEPRPDGGESAYYQSLSAPYAPRNAPFATFGELGLVRGVEPAVLERLRPFATVFVDGGAINVNTAPLQVLMALDEGISEGIARDIMQRRRIKPFKSVGELSEIPGMETIAGKLSGFAGARGSTYRLVSRAAVGDVTRLVEAVVNLDGTQPRYLY,not soluble
10,MAHHHHHHMPNDTLQVKLSQDSLFFPLPFTNATIDNVVQVKNMLPVVQGDPKANVISFKILSRVQNRYSVHPPVGFIGAGEHATIIFSFNPEHVKMAKNPEERELPTEATKDAIHVDFAVVDAPSVQTALAHWVPGSKETKASWEVVADASRFWKQRGQVKENSPITMRYKLRCVFATRNNVPDSLVMCMKEEGGCCKLITDGAAPLPRTRPPMTSSTQPQNTAPPEAPPHRYSESQRTTPTTRSPRSDACCTPCAIGPPGIFTMGPGAAAAASAPSASPPSSAPTQKSKTSAGITCGDITLKSIAEEVLNYKLSYRAVGVLLFLTLLCGLLDQSNLLTWLIAKQ,not soluble
11,MGSDKIHHHHHHMDYPDKMTPAQRAAAKAKGEPADRVACNPNIANGMARIAGYKISQFNDDPEALADAIIKTYRRFGADGARIFTDLFLVSEAMGAKVRKPEDNTADLEEPAINDMSEFDKLKVIDPYTQGRIPVHLRAIEIVRDEIASEVGVTASVVGPFTNAFFLIGVEKMTKMLLKDPESVHKLCEISLQSCIALTDAVLEKGVGVTISEPLSSCTVVSPKHFREFSAPYLKRLIDHIKARTGKLVIHICGITDPIWDDLVEMGVDVLSIDNVADMEKCAETVGDKMVIAGNVDPSAIMYAGSREDVRKATIKCAKQGLKAKKGFMIMSGCSLPVEVPIENIDAMMDTAREMGWPVTEEKLDYLLSFDKYKD,not soluble
12,MSLSEDENALSIFETNCHSGSPKKQSSSAAIHKPYLHFTMSPYHQPTSYRPRLLLSGERGSGQTSHLAPALLHTLERFSVHRLDLPALYSVSAKTPEESCAQIFREARRTVPSIVYMPHIGDWWEAVSETVRATFLTLLQDIPSFSPIFLLSTSETMYSELPEEVKCIFRIQYEEVLYIQRPIEEDRRKFFQELILNQASMAPPRRKHAALCAMEVLPLALPSPPRQLSESEKSRMEDQEENTLRELRLFLRDVTKRLATDKRFNIFSKPVDIEEVSDYLEVIKEPMDLSTVITKIDKHNYLTAKDFLKDIDLICSNALEYNPDKDPGDKIIRHRACTLKDTAHAIIAAELDPEFNKLCEEIKEARIEGHHHHHH,not soluble
13,MGTIKIVTDSSITIEPELIKALDITVVPLSVMIDSKLYSDNDLKEEGHFLSLMKASKSLPKTSQPPVGLFAETYENLVKKGVTDIVAIHLSPALSGTIEASRQGAEIAEAPVTVLDSGFTDQAMKFQVVEAAKMAKAGASLNEILAAVQAIKSKTELYIGVSTLENLVKGGRIGRVTGVLSSLLNVKVVMALKNDELKTLVKGRGNKTFTKWLDSYLAKNSHRPIAEIAISYAGEASLALTLKERIAAYYNHSISVLETGSIIQTHTGEGAFAVMVRYE,soluble
14,MFDYTDFPEQRQSKIRLILSEEGKVVCTQLSRELNVSEHTIRRDLKELAQSGACKRVYGGAVSLPPEAIDFASRATIDAAQKDRIAQAVIPLIKPNGCVFFDTGTTNLAVAKQIPAGLKFTAVCNSPIIAAELMQHQDVEVIVLGGRIQKEVGGAIGIDTLRQLEKMYFDQCLLGGCAFDANEGLTVFEYDDAEFKKCLVTRSSEVIVALTANKISALTRYRVAECDEITTLVTDDEISPASQSVLKEKNLDVIIARLEHHHHHH,soluble
15,MSLGSEGTSAKISISAIQVNANNPIEDRLLIQRMRLNLPGGENKDFVISAVIDGHGGWQVAEYVQNNFIRIFQKELSQYMSSLVREGSANESNPISQINETDIIAGLFYSLKKTYYILDEELKSKLEVAYNLGFSKLASVGACTTVSIITEDAILTANSGDCLSVYCNENGIWLPLNEQLSAMNPQEQKRLEEIHKHEKDNLIQCKQILHEKFLMGLYTIPKYRGCYVKGILQPSRAIGDFRLKSMDFNYNWEKDLSTEKLLPTFSYVLKDKESEQSKKEQHRENEDLNEDEFPYSYDLINGNNSINMRRDSYRYFVKNPLSFPYVRSEPMLHLFFYNSLNKNLSSTDNTSVEKISPNEYSEGHHHHHH,soluble
16,MGSDKIHHHHHHMAPLAPLALSELGPKLDRSIDPLWISRQSLEAEPNAFKPGCGWLPNDWMPLESIRKALRSATRREDDSLLGYSSPLGLSALRDLLARRAQSKGIEANLNQVLLTDSGTQAIDLVCRFLLKPDDVVLIDDPCYFNFHALLKVHQVKVVGIPYTPNGPDLEAFKEAIESYNPRLYITNSGIHNPTGATLSLSTAHQLLKLIDQSNLIVIEDDIFSDFEYTPAPRLAALDNLSRVIFIGSFSKTLSASIRCGYIIAKPEWIDQIADLKIATSFSHNGLSAKILHTALTDGSYRKHLDLLKVRLAQAMQETIAKLKSIGIEPWIEPKAGIFVWCRLPEGVDAAKIARFCLNRQVILAPGNAFSQAQSAGQFIRFNITQSNHDYIYKTLAEALLQESLEKQV,not soluble
17,MSLGIRSGNNNGGFTNLTSQAPQTTQMFQSQSQLQPQPQPQPQQQQQHLQFNGSSDASSLRFGNSLSNTVNANNYSSNIGNNSINNNNIKNGTNNISQHGQGNNPSWVNNPKKRFTPHTVIRRKTTKQNSSSDINQNDDSSSMNATMRNFSKQNQDSKHNERNKSAANNDISSLLSNFNDIPPSVTLQDWQREDEFGSIPSLTTQFVTDKYTAKKTNRSAYDSKNTPNVFDKDSYVRIANIEQNHLDNNYNTAETNNKVHETSSKSSSLSAIIVFGYPESISNELIEHFSHFGHIMEDFQVLRLGRGINPNTFRIFHNHDTGCDENDSTVNKSITLKGRNNESNNKKYPIFTGESWVKLTYNSPSSALRALQENGTIFRGSLIGCIPYSKNAVEQLAGCKIDNVDDIGEFNVSMYQNSSTSSTSNTPSPPNVIITDGTLLREDDNTPAGHAGNPTNISSPIVANSPNKRLDVIDGKLPFMQNAGEGHHHHHH,soluble
18,MGSDKIHHHHHHVFKYMKKLLIVTTVPETLATILQSQPTFLNEEYEVFLASSTGIQQVADIENVRCFTINMYRGYSPFKDLFSIFKMFYLLLRIKPHIIHSYTPKAGLVCAIAAYFARVPHRIHTFTGLLFPTATGFKHLILKFTDKLVIYLNTHIVCEGYGVWRQFYRFGFSESKFEVIGNGNIAGVDLCYFDPDIVDLSVKSNLISSYKLEGCKVFLYVGRLNVDKGIKELVNAFINLNDNSKLLIVGALDTTAPPDDDTLLKIKVNPNIIDFGFLNDIRPIMSISSCLILPSYREGFPNVVLQAGAMELPCIVTDIPGCNEIISHDVNGWLVKPKCIDALESAMNDFLSLDNAKLLSVKKEASENIKTNFERSFYQKKLLNFYNKVLEND,not soluble

# Source: the DeepSol protein solubility set
